Assay results taken from US20220387557A1 (OXFORD UNIVERSITY INNOVATION, published 2022).

Experiments:
[1] = target: T1, Fc tagged mouse TNFR1 (Sino Biological) (mouse, UniProt P25118 22-212, limits assumed); experiment: SPR, Biacore single cycle kinetics, stability study, after 1 year at -20° C.
T1 construct: Bought reagent; also called mTNFR1; mTNFR1-Fc; not shown: Fc tag of the bought protein
T1 sequence (looked up): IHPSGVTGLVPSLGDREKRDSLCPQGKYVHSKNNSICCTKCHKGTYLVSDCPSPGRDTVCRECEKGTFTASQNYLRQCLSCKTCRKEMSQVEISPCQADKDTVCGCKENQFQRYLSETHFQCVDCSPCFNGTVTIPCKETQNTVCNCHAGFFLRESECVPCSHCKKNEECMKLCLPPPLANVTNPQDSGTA
Method: (§1) Due to the limit in the number of available flow cells for analysis (three Fc per analysis, Fc2, Fc3 and Fc4, with Fc1 always being used as blank reference for non-specific subtraction), receptor binding was assessed in two separate overlapping runs using either: hTNFR1 (Fc2), hTNFR2 (Fc3) and mTNFR1 (Fc4), or; hTNFR1 (Fc2), […] and mTNFR2 (Fc4). Receptors were diluted in running buffer to a concentration of ˜4 μg/mL and at the start of each cycle loaded onto Fc2, Fc3 and Fc4 of a Protein A chip (GE Healthcare, Little Chalfont, UK) at a flow rate of 10 μL/min to give an RU of 40-100. The surface was then allowed to stabilise. Single cycle kinetic data was obtained at a flow rate of 45 μL/min. […] The association phase for the three injections of increasing concentrations of TNF was monitored for 240 seconds and a single dissociation phase was measured for 2700 seconds following the last injection of TNF. Regeneration of the Protein A surface was conducted using 10 mM glycine-HCl pH 1.5. The signal from the reference channel Fc1 (no receptor) was subtracted from that of Fc2, Fc3 and Fc4 to correct for differences in non-specific binding to a reference surface.
(§2) At day zero (prior to freezing) and following thawing on ice after 3 months and 1 year the following assays were performed: [0341] SDS-PAGE [0342] OD280 nm [0343] Single cycle Biacore for binding to hTNFR1, hTNFR2 and mTNFR1

[2] = target: T2, Fc tagged human TNFR2 (Sino Biological) (human, UniProt P20333 23-257); experiment: as above
T2 construct: Bought reagent; also called hTNFR2; hTNFR2-Fc; not shown: Fc tag of the bought protein
T2 sequence (looked up): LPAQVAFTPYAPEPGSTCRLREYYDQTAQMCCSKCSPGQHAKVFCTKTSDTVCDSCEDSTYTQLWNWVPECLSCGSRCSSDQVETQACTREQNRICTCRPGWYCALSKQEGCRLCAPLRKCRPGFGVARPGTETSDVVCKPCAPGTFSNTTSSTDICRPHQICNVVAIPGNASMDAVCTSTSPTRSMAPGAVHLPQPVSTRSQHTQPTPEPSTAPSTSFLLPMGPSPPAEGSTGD
Method: as §1, §2

[3] = target: T3, Fc tagged human TNFR1 (Sino Biological) (human, UniProt P19438 22-211, limits assumed); experiment: as above
T3 construct: Bought reagent; also called hTNFR1; hTNFR1-Fc; not shown: Fc tag of the bought protein
T3 sequence (looked up): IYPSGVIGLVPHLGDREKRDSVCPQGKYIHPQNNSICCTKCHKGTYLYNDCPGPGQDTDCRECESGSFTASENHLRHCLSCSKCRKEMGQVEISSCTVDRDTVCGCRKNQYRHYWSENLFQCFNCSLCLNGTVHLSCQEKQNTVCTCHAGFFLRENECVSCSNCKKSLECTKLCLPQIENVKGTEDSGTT
Method: as §1, §2

[4] = target: T1, Fc tagged mouse TNFR1 (Sino Biological); experiment: SPR, Biacore single cycle kinetics, stability study, before freezing (t=0)
Method: as §1, §2

[5] = target: T2, Fc tagged human TNFR2 (Sino Biological); experiment: as above
Method: as §1, §2

[6] = target: T3, Fc tagged human TNFR1 (Sino Biological); experiment: as above
Method: as §1, §2

[7] = target: T4, Fc tagged mouse TNFR2 (Sino Biological) (mouse, UniProt P25119 23-258); experiment: SPR (Biacore T200) single cycle kinetics, Fc-tagged receptor captured on Protein A chip, TNF protein as analyte at 1.67-15 nM
T4 construct: Bought reagent; also called mTNFR2; mTNF2; not shown: Fc tag of the bought protein
T4 sequence (looked up): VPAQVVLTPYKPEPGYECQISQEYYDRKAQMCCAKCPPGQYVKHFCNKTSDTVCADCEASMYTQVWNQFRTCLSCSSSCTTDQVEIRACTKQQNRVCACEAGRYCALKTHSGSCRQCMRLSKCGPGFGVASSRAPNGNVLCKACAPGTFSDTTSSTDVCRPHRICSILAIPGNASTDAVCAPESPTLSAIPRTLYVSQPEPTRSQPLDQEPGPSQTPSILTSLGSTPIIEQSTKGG
Method: Single cycle kinetic analysis was performed using a Biacore T200 (serial no. 1909913) running Biacore T200 Evaluation Software V2.0.1 (Uppsala, Sweden). All experiments were run at 25° C. with HBS-P+ running buffer (pH 7.4) (GE Healthcare, Little Chalfont, UK).
as §1
Controls were used to ensure the integrity of the receptors during the Biacore run.

[8] = target: T1, Fc tagged mouse TNFR1 (Sino Biological); experiment: SPR, Biacore single cycle kinetics, stability study, after 1 year at -80° C.
Method: as §1, §2

[9] = target: T2, Fc tagged human TNFR2 (Sino Biological); experiment: as above
Method: as §1, §2

[10] = target: T3, Fc tagged human TNFR1 (Sino Biological); experiment: as above
Method: as §1, §2

Kd [1]: 85.1 pM
Kd [2]: 210 pM
Kd [3]: 39 pM
Kd [4]: 62.4 pM
Kd [5]: 198 pM
Kd [6]: 17.5 pM
binding result [7]: no binding (tested: 15 nM)
Kd [8]: 86.4 pM
Kd [9]: 349 pM
Kd [10]: 40.7 pM
B1: TNF mutein B2 (ligand)
chain: VRSSSRTPSDKPVAHVVANPQAEGQLQWLNRRANALLANGVELRDNQLVVPSEGLYLIYSQVLFKGQGCPSTHVLLTHTISRITASYSGKVNLLSAIKSPCQRETPEGAEAKPWYEPIYLGGVFQLEKGDRLSAEINRPDYLDFAESGQVYFGIIAL
notes: Human TNF mutein, TASYSG at positions 84-89; not shown: C-terminal FLAG tag and His6 tag from vector pANT65
